What follows are sequences tested on Escherichia coli TOP10 (assay: shrunken log2 fold change of peptide-encoding DNA abundance (4.5 h post-induction vs induction); higher = less antimicrobial activity (less host growth inhibition)). Settings: time post-induction: 4.5 h; library: site-saturation at positions 5, 18, 19, 20.
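Also: peptides expressed intracellularly from a pBAD plasmid library in pooled LB shake-flask culture, induced with 0.3% L-arabinose, DNA abundance read by NGS, three biological replicates, DESeq2 with apeglm shrinkage.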

Sequence	shrunken log2 fold change
RRIRVRPPRLPRPRPRPWNPPRP	-0.0803
RRIRVRPPRLPRPRPRPFDNPRP	-0.359
RRIRTRPPRLPRPRPRPQKCPRP	-0.0262
RRIRPRPPRLPRPRPRPPTTPRP	0.327
RRIRWRPPRLPRPRPRPGWPPRP	0.644
RRIRLRPPRLPRPRPRPQGGPRP	0.0226
RRIRFRPPRLPRPRPRPKCFPRP	-0.108
RRIRCRPPRLPRPRPRPGFCPRP	0.124
RRIRVRPPRLPRPRPRPNTCPRP	-0.101
RRIRSRPPRLPRPRPRPKEPPRP	-0.0411
RRIRARPPRLPRPRPRPWWCPRP	-0.0725
RRIRSRPPRLPRPRPRPRDQPRP	-0.0856
RRIRSRPPRLPRPRPRPLMCPRP	-0.471
RRIRDRPPRLPRPRPRPITNPRP	-0.33
RRIRQRPPRLPRPRPRPQMDPRP	-0.0516
RRIRARPPRLPRPRPRPFLQPRP	0.123
RRIRQRPPRLPRPRPRPDIDPRP	-0.078
RRIRQRPPRLPRPRPRPIFPPRP	0.122
RRIRQRPPRLPRPRPRPSYAPRP	0.0242
RRIRQRPPRLPRPRPRPTWKPRP	0.00778
RRIRDRPPRLPRPRPRPVCEPRP	1.18
RRIRERPPRLPRPRPRPVSCPRP	0.182

Sequence	shrunken log2 fold change
RRIRPRPPRLPRPRPRPQLFPRP	0.0893
RRIRHRPPRLPRPRPRPRHSPRP	-0.173
RRIRSRPPRLPRPRPRPTHSPRP	0.186
RRIRERPPRLPRPRPRPYYQPRP	0.0241
RRIRMRPPRLPRPRPRPVMTPRP	0.148
RRIRNRPPRLPRPRPRPYQHPRP	-0.549
RRIRERPPRLPRPRPRPNYMPRP	-0.667
RRIRNRPPRLPRPRPRPFGYPRP	-0.377
RRIRVRPPRLPRPRPRPTVMPRP	0.126
RRIRSRPPRLPRPRPRPELGPRP	0.547
RRIRCRPPRLPRPRPRPLSPPRP	0.107
RRIRRRPPRLPRPRPRPFDNPRP	-0.241
RRIRWRPPRLPRPRPRPADWPRP	0.345
RRIRQRPPRLPRPRPRPFFSPRP	-0.313
RRIRKRPPRLPRPRPRPKGGPRP	4.1
RRIRSRPPRLPRPRPRPGTEPRP	0.0221
RRIRTRPPRLPRPRPRPHERPRP	0.594
RRIRCRPPRLPRPRPRPRRWPRP	0.646
RRIRRRPPRLPRPRPRPMYVPRP	-0.203
RRIRNRPPRLPRPRPRPNWDPRP	-0.163
RRIRNRPPRLPRPRPRPQSLPRP	-0.139
RRIRCRPPRLPRPRPRPKQRPRP	0.222

Sequence	shrunken log2 fold change
RRIRDRPPRLPRPRPRPNPYPRP	-0.558
RRIRSRPPRLPRPRPRPKKWPRP	0.0341
RRIRHRPPRLPRPRPRPKSYPRP	-0.245
RRIRYRPPRLPRPRPRPRNCPRP	-0.234
RRIRIRPPRLPRPRPRPCNWPRP	-0.135
RRIRCRPPRLPRPRPRPYDCPRP	-0.451
RRIRLRPPRLPRPRPRPHCVPRP	-0.068
RRIRVRPPRLPRPRPRPLGGPRP	0.27
RRIRVRPPRLPRPRPRPKNVPRP	-0.0901
RRIRQRPPRLPRPRPRPDYCPRP	-0.163
RRIRDRPPRLPRPRPRPCFMPRP	0.0118
RRIRGRPPRLPRPRPRPNYEPRP	0.161
RRIRARPPRLPRPRPRPWHNPRP	-0.0874
RRIRFRPPRLPRPRPRPTYWPRP	0.385
RRIRFRPPRLPRPRPRPCSYPRP	-0.344
RRIRHRPPRLPRPRPRPWTDPRP	-0.0171
RRIRNRPPRLPRPRPRPGVCPRP	0.241
RRIRVRPPRLPRPRPRPYWCPRP	-0.409
RRIRQRPPRLPRPRPRPCWQPRP	-0.0325
RRIRLRPPRLPRPRPRPCDCPRP	-0.0629
RRIRNRPPRLPRPRPRPEDLPRP	-0.00079
RRIRTRPPRLPRPRPRPAVAPRP	0.422

Sequence	shrunken log2 fold change
RRIRVRPPRLPRPRPRPSCWPRP	0.178
RRIRSRPPRLPRPRPRPMKGPRP	-0.311
RRIRERPPRLPRPRPRPGWCPRP	0.00111
RRIRMRPPRLPRPRPRPFAQPRP	0.0306
RRIRSRPPRLPRPRPRPVMVPRP	-0.31
RRIRNRPPRLPRPRPRPHSMPRP	-0.027
RRIRPRPPRLPRPRPRPESFPRP	-0.216
RRIRSRPPRLPRPRPRPFSFPRP	-0.633
RRIRHRPPRLPRPRPRPPRCPRP	0.526
RRIRWRPPRLPRPRPRPVMGPRP	0.37
RRIRDRPPRLPRPRPRPFSPPRP	-0.158
RRIRCRPPRLPRPRPRPSDMPRP	-0.415
RRIRRRPPRLPRPRPRPPQCPRP	1.55
RRIRLRPPRLPRPRPRPKHVPRP	-0.0799
RRIRSRPPRLPRPRPRPMPQPRP	0.126
RRIRQRPPRLPRPRPRPKFVPRP	-0.105
RRIRRRPPRLPRPRPRPWDMPRP	0.0681
RRIRIRPPRLPRPRPRPEGTPRP	0.0536
RRIRWRPPRLPRPRPRPHSMPRP	-0.216
RRIRIRPPRLPRPRPRPSHWPRP	-0.0355
RRIRARPPRLPRPRPRPLVKPRP	0.0577
RRIRDRPPRLPRPRPRPRTPPRP	0.17

Sequence	shrunken log2 fold change
RRIRSRPPRLPRPRPRPYEAPRP	-0.241
RRIRDRPPRLPRPRPRPVTAPRP	0.157
RRIRIRPPRLPRPRPRPKEFPRP	-0.361
RRIRMRPPRLPRPRPRPVYFPRP	-0.0299
RRIRVRPPRLPRPRPRPLMDPRP	-0.0628
RRIRQRPPRLPRPRPRPNLPPRP	0.0275
RRIRFRPPRLPRPRPRPRLPPRP	1.13
RRIRMRPPRLPRPRPRPVIWPRP	0.46
RRIRNRPPRLPRPRPRPRTNPRP	-0.166
RRIRFRPPRLPRPRPRPLTNPRP	0.0389
RRIRARPPRLPRPRPRPRDQPRP	0.499
RRIRQRPPRLPRPRPRPIHYPRP	0.0133
RRIRHRPPRLPRPRPRPQEWPRP	-0.119
RRIRSRPPRLPRPRPRPLYRPRP	-0.346
RRIRSRPPRLPRPRPRPLDGPRP	-0.365
RRIRRRPPRLPRPRPRPIWPPRP	0.664
RRIRSRPPRLPRPRPRPPMSPRP	-0.0301
RRIRQRPPRLPRPRPRPDIAPRP	0.111
RRIRMRPPRLPRPRPRPNSVPRP	-0.0202
RRIRDRPPRLPRPRPRPVHQPRP	-0.0516
RRIRIRPPRLPRPRPRPTFIPRP	-0.677

Reference: the supplement of paper PMC9112550, “Optimization of the antimicrobial peptide Bac7 by deep mutational scanning” (BMC Biology, 2022)
